We go through four molecules from article PMC9121088, “The novel P330L pathogenic variant of aromatic amino acid decarboxylase maps on the catalytic flexible loop underlying its crucial role” (Cellular and Molecular Life Sciences: CMLS, 2022).

Usually Kd stands for the constant that tells how readily two partners part at equilibrium. A lower Kd goes with tighter binding. A word on the Km: it is the concentration of substrate that gives half-maximal velocity. Broadly, the kcat is the maximal rate divided by the concentration of active sites. As a reminder, the kcat/Km is the turnover number divided by the Michaelis constant.

Changes are numbered by the printed parent chain. Numbers in names are those of the source.

Data set [1] addresses T1, aromatic amino acid decarboxylase (AADC), wild-type (Homo sapiens, UniProt P20711).
T1 construct: gene DDC
T1 sequence (P20711 1-480): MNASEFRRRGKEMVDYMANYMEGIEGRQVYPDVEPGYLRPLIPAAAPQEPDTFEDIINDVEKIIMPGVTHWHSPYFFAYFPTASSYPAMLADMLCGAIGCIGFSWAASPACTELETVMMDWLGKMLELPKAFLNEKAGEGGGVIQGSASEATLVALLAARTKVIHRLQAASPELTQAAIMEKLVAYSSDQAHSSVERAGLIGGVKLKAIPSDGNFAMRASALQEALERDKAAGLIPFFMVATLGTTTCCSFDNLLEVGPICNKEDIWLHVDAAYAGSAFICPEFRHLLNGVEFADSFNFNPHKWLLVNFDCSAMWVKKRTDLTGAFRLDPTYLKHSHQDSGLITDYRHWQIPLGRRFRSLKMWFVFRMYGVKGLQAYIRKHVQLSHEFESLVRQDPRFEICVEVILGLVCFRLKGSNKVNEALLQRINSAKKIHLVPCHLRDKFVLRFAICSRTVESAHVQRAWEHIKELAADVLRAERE
Nature of the data set: CD thermal denaturation at […] nm ([…] to […] °C); DLS of cDopa-bound form. The class given is binding.

Data set [2] addresses T2, aromatic amino acid decarboxylase (AADC), P330L variant (Homo sapiens, UniProt P20711, P330L).
T2 construct: gene DDC
T2 sequence (P20711 1-480 P330L): T1 sequence (P20711 1-480) with P330L
Nature of the data set: CD thermal denaturation at […] nm ([…] to […] °C) of cDopa-bound form. The format is binding.

Data set [3] has as its target T1, aromatic amino acid decarboxylase (AADC), wild-type. Put plainly: intrinsic fluorescence quenching titration of apoenzyme (KD(PLP)). The class given is binding.
In data set [4] the target is T2, aromatic amino acid decarboxylase (AADC), P330L variant. Described as above. The format is binding.
Substrate in data set [5]: N[C@@H](Cc1c[nH]c2ccc(O)cc12)C(=O)O
Put plainly: purified protein. The format is biochemical, Homo sapiens. As to conditions: pH 7.4; 25.0 °C.

Substrate in data set [6]: N[C@@H](Cc1ccc(O)c(O)c1)C(=O)O
Put plainly: purified protein. The settings on record: PLP active site; external aldimine with PLP; pH 7.4; 25.0 °C.

As for `C[C@@](Cc1ccc(O)c(O)c1)(NN)C(=O)O` [cDopa, carbiDopa], the “WT (°C)” value in data set [1] came out at 68.9 ± 0.4 °C. Besides, the “P330L (°C)” value in data set [2] was 69.9 ± 0.3 °C.

Consider `Cc1ncc(COP(=O)(O)O)c(C=O)c1O` [PLP, pyridoxal 5'-phosphate], for which the dissociation constant Kd in data set [3] amounted to 101 ± 10 nM; in data set [4], 123 ± 19 nM.

B1: aromatic amino acid decarboxylase (AADC), wild-type (Homo sapiens) (protein)
chain: T1 sequence (P20711 1-480)
Regarding B1, in the data set “purified protein [5]”, the Km is 9 ± 1 µM, the kcat turned out to be 0.56 ± 0.02 s⁻¹ and the kcat/Km was 62000 ± 7000 M⁻¹ s⁻¹. In the data set “purified protein [6]”, the Km worked out at 16 ± 1 µM, the kcat was determined as 5.5 s⁻¹ and the kcat/Km was determined as 344000 M⁻¹ s⁻¹.

B2: aromatic amino acid decarboxylase (AADC), P330L variant (Homo sapiens; P330L) (protein)
chain: T1 sequence (P20711 1-480) with P330L
As to B2, in the data set “purified protein [5]”, the Km was 29 ± 3 µM, the kcat is 0.0092 ± 0.0003 s⁻¹ and the specificity constant (kcat/Km) was 320 ± 30 M⁻¹ s⁻¹. In the data set “purified protein [6]”, the Km stood at 57 ± 2 µM, the kcat is 0.0291 s⁻¹ and the kcat/Km was found to be 510 M⁻¹ s⁻¹.
